# Tests used:
# Conditions in all cases: 20 nM; 72 h
# MCF10A [1] = experiment: 5+ nucleoli phenotype percent effect (relative to siNT 0% and siKIF11 100%); higher = more cells with five or more nucleoli
# Procedure: (§1)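 After 72 h, cells were fixed and stained with Hoechst and anti-fibrillarin, and nucleoli per nucleus were counted with CellProfiler. Values are plate-adjusted percent effect for the one-nucleolus and 5+ nucleoli phenotypes, normalised to siNT (0%) and to the positive controls siNOL11 or siKIF11 (100%), as the mean of biological triplicates. Percent viability is the nuclei count relative to siNT.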
# MCF10A [2] = experiment: one-nucleolus phenotype percent effect (relative to siNT 0% and siNOL11 100%); higher = more cells with one nucleolus (ribosome biogenesis inhibition)
# Procedure: as §1
# MCF10A [3] = experiment: percent viability (nuclei count relative to siNT); higher = more viable cells
# Procedure: as §1
Sequence,5+ nucleoli phenotype percent effect (MCF10A [1]) [%],one-nucleolus phenotype percent effect (MCF10A [2]) [%],percent viability (MCF10A [3]) [%]
UUGGACAGAAAACACGCAGGAA [hsa-miR-4520a-3p],-25,-3.29,59.1
ACUGCCCCAGGUGCUGCUGG [hsa-miR-324-3p],37.7,-7.87,68
CGGCCCGGGCUGCUGCUGUUCCU [hsa-miR-1538],45,-27.8,144
UGUGAUAUCAUGGUUCCUGGGA [hsa-miR-3689a-5p],-5.22,6.87,37.9
UUCCCUUUGUCAUCCUUCGCCU [hsa-miR-211-5p],49.7,-7.23,75.8
GUGGGUGCUGGUGGGAGCCGUG [hsa-miR-6741-5p],-22.2,6.09,43.5
AGCCGCUCUUCUCCCUGCCCACA [hsa-miR-6743-3p],35.5,-1.42,58
GUGGACCAGGAUGGCAAGGGCU [hsa-miR-4776-5p],14.5,-5.58,77.7
UCUACAAAGGAAAGCGCUUUCU [hsa-miR-1283],29.7,-26.4,148
ACCUUGCAUCUGCAUCCCCAG [hsa-miR-6841-3p],-39.3,15,28.6
UCUGGGCAACAAAGUGAGACCU [hsa-miR-1285-3p],2.8,20.6,28.8
UCUGGGCACAGGCGGAUGGACAGG [hsa-miR-5189],-2.97,29.3,34.5
AUCUGUCUCGAUUGUUUCCAG [hsa-miR-6888-3p],6.29,23.5,110
UCUAGGCUGGUACUGCUGA [hsa-miR-645],7.45,-11.5,59.5
GGAGAAAUUAUCCUUGGUGUGU [hsa-miR-539-5p],17.9,-14.8,55.7
GCAGAUCAGGACUGUAACUCACC [hsa-miR-1288-5p],31.1,-14.5,48.5
UCCCUGUCCUCCAGGAGCUCACG [hsa-miR-339-5p],-0.871,0.467,51.6
CGGGCCGGAGGUCAAGGGCGU [hsa-miR-6781-5p],54.4,-2.25,46.3
AGACCAUGGGUUCUCAUUGU [hsa-miR-591],10.2,-3.76,84.8
CAGUGCAAGUGUAGAUGCCGA [hsa-miR-3666],66.7,-18.2,150
UGCUAGUCUGGACUGAUAUGGU [hsa-miR-8086],-8.54,-8.07,31.7
UGAGGUGACCGCAGAUGGGAA [hsa-miR-7854-3p],-6.86,29.8,14.8
CCUCAGGGCUGUAGAACAGGGCU [hsa-miR-1266],16.1,12.6,49.2
AGGGAUCGCGGGCGGGUGGCGGCCU [hsa-miR-638],9.85,-7.05,88

Sequence,5+ nucleoli phenotype percent effect (MCF10A [1]) [%],one-nucleolus phenotype percent effect (MCF10A [2]) [%],percent viability (MCF10A [3]) [%]
GGUCUAGGCCCGGUGAGAGACUC [hsa-miR-8078],10,-3.5,21
ACCGUGCAAAGGUAGCAUA [hsa-miR-1973],-30.8,2.66,119
UAAUUUUAUGUAUAAGCUAGU [hsa-miR-590-3p],34.3,-23.9,121
CCUCAGAUCAGAGCCUUGC [hsa-miR-4330],59.5,-32.8,91.9
UUUCCGGCUCGCGUGGGUGUGU [hsa-miR-1180],-27.5,12.6,31.8
CAGGACUUGACGGCUGCAACU [hsa-miR-8083],22.5,-1.33,71
ACUGGCAGAACACUGAAGCAGC [hsa-miR-6868-5p],-21.7,34.1,26.9
AAGUGAUCUAAAGGCCUACAU [hsa-miR-1245a],-34,10.4,48.6
UCUUGUGUUCUCUAGAUCAGU [hsa-miR-581],2.53,-3.72,82.2
AGUGCCUGAGGGAGUAAGAG [hsa-miR-550a-3-5p],-17.5,3.47,79.3
UCCAGGCAGGAGCCGGACUGGA [hsa-miR-4673],14.9,-17.9,62.5
CAGGGAGGCGCUCACUCUCUGCU [hsa-miR-4756-5p],41,-3.87,158
AUAGUCCGAGUAACGUCGGGGC [hsa-miR-6723-5p],-28.9,16.5,54
AAAAGUAAUUGCGGGUUUUGCC [hsa-miR-548as-5p],35.9,-24.9,160
AAAAUGGUGCCCUAGUGACUACA [hsa-miR-224-3p],-15,12.8,13.9
UGAGGGGCCUCAGACCGAGCUUUU [hsa-miR-3184-5p],38.7,5.35,31.2
AGUUAAUGAAUCCUGGAAAGU [hsa-miR-569],-15.9,10.3,90.6
GUGAGUGGGAGCCCCAGUGUGUG [hsa-miR-1238-5p],22.1,-21.4,95.1
UUUCAGAUAACAGUAUUACAU [hsa-miR-3942-3p],-0.677,-15.3,58.8
UGAGACCUCUGGGUUCUGAGCU [hsa-miR-769-5p],9.63,7.1,47.4
CUCAUCUGCAAAGAAGUAAGUG [hsa-miR-452-3p],-40.5,48.1,21.6
UUCUCCAAAAGAAAGCACUUUCUG [hsa-miR-515-5p],3.02,-9.79,91.4
UCAGGCCUCUUUCUACCUU [hsa-miR-4650-5p],12.7,-4.86,19.7
UUUCUUCUUAGACAUGGCAACG [hsa-miR-4659a-3p],-14.6,-9.58,51.4
